We go through 2 molecules from publication PMC5041479.

The target of data set [1] is T1, Pif1p (yeast, UniProt P07271 40-859).
T1 sequence: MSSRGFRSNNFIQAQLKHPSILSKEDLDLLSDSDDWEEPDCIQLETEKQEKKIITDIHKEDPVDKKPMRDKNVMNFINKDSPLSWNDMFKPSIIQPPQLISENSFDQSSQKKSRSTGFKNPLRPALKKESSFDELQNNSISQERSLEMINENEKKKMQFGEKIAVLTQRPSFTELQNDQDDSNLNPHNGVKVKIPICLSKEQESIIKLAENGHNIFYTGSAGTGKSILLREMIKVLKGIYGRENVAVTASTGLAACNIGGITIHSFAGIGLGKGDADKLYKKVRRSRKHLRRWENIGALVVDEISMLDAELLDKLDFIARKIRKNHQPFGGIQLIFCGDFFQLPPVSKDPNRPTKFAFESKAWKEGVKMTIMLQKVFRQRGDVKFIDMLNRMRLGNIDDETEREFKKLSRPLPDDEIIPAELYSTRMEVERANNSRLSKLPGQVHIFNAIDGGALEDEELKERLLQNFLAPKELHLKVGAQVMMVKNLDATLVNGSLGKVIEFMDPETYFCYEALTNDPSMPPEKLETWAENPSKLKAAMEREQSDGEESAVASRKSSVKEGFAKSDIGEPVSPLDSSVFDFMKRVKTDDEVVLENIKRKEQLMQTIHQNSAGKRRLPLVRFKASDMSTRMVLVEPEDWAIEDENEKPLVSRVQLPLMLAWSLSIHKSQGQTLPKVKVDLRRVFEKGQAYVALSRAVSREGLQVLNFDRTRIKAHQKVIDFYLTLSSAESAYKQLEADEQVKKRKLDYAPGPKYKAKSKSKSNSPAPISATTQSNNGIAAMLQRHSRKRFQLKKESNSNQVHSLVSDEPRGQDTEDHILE
Briefly: fluorescence anisotropy. For orientation: In fluorescence polarisation assays a small probe gives low polarisation when free and higher when bound to something large.

Data set [2] has as its target T1, Pif1p. Briefly: fluorescence anisotropy. The source holds these as a separate data set.

Where two headings read alike, the source gives them in different places.

B1: FAM-T12 (ssDNA)
DNA: TTTTTTTTTTTT
B1: in data set [1], the Kd – broadly, a measure of binding affinity in units of concentration – came to 25.2 nM.

B2: FAM-GR12 (ssDNA)
DNA: GTGTGTGTGGTG
Take B2: the affinity in data set [2], expressed as Kd, was 8.7 nM.
